Test results reported in publication PMC3883301, “FLC-mediated flowering repression is positively regulated by sumoylation” (Journal of Experimental Botany, 2013).
Substitutions are numbered along the chain they refer to. Names and notes keep the numbering of the source.

B1: His6-FLC (flowering locus C, full length) (natural protein, Arabidopsis thaliana, UniProt Q9S7Q7 1-196, looked up)
chain: MGRKKLEIKRIENKSSRQVTFSKRRNGLIEKARQLSVLCDASVALLVVSASGKLYSFSSGDNLVKILDRYGKQHADDLKALDHQSKALNYGSHYELLELVDSKLVGSNVKNVSIDALVQLEEHLETALSVTRAKKTELMLKLVENLKEKEKMLKEENQVLASQMENNHHVGAEAEMEMSPAGQISDNLPVTLPLLN
notes: Flowering locus C (FLC), MADS-box transcription factor, Arabidopsis; full-length cDNA in pET28a; The printed name puts His6 before FLC; also called Arabidopsis FLC; source: E. coli BL21/DE3 (pLysS), purified (Ni2+-NTA resin)
B2: GST–AtSIZ1 (D3), amino acids 1–100 (domain or fragment, Arabidopsis thaliana, UniProt Q680Q4 1-100, looked up)
chain: MDLEANCKEKLSYFRIKELKDVLTQLGLSKQGKKQELVDRILTLLSDEQAARLLSKKNTVAKEAVAKLVDDTYRKMQVSGASDLASKGQVSSDTSNLKVK
notes: AtSIZ1, Arabidopsis, amino acids 1-100 (N-terminal region containing the SAP domain), in pGEX4T-1; also called N-terminal region containing the SAP domain of AtSIZ1; source: E. coli BL21/DE3 (pLysS), purified (glutathione resin)
B3: His6-mFLC (FLC K154R) (natural protein, Arabidopsis thaliana, UniProt Q9S7Q7 1-196, looked up)
chain: B1 chain with K154R
notes: Flowering locus C (FLC), Arabidopsis, full length with the sumoylation site mutation K154R; The construct section describes His6-FLC(K154R)-Myc only; also called mutant FLC; source: E. coli BL21, purified (Ni2+-NTA resin)

Key:
GST–FLC, full length = molecular target: T1, GST–FLC, full length (Arabidopsis thaliana, UniProt Q9S7Q7 1-196); assay: pull-down; 2 μg GST–FLC bait and 2 μg His6-FLC or His6-mFLC prey in 1 ml binding buffer (50 mM TRIS-HCl pH 7.5, 100 mM NaCl, 1% Triton X-100, 0.2% glycerol, 0.5 mM β-mercaptoethanol); 25 °C 2 h; glutathione resin; anti-His blot; conditions: both partners purified
T1 construct: Flowering locus C (FLC), Arabidopsis, full-length GST–FLC bait; The construct section describes only GST–FLC-Myc (pGEX4T-1)
T1 sequence (looked up): B1 chain

[1] = molecular target: B1; assay: pull-down; 2 μg GST–AtSIZ1 (full length or deletion mutant) or GST bait and 2 μg His6-FLC prey in 1 ml 50 mM TRIS-HCl pH 7.5, 100 mM NaCl, 1% Triton X-100, 0.2% glycerol, 0.5 mM β-mercaptoethanol; 25 °C 2 h; glutathione resin; anti-His blot; conditions: both partners purified

Binder	binding result (GST–FLC, full length)	binding result [1]
B1	binds	–
B2	–	binds
B3	binds	–
